For one assay, the target named is HLA-A*01:01. The experiment in a line: IEDB peptide-MHC binding, purified MHC/competitive/radioactivity; filed as Kd, often an IC50 or EC50 that approximates it; ≥ and ≤ were set here for values at or beyond the usual limits of such assays.
For the next assay, the target named is HLA-A*03:01. Described as above. The settings on record: source organism: SARS coronavirus Tor2.
A further assay addresses HLA-A*11:01. The assay is described as above. The following applies: source organism: SARS coronavirus Tor2.
A further assay deals with HLA-A*23:01. The assay is described as above.
The next assay deals with HLA-A*24:02. The assay is described as above.
The next assay concerns the target HLA-A*26:01. Described as above.
Another assay has as its target HLA-A*29:02. The assay is described as above.
For a further assay, the target named is HLA-A*30:02. The description is as above.
The target in the next assay is HLA-A*31:01. The description is as above. The following applies: source organism: SARS coronavirus Tor2.
The next assay has as its target HLA-A*33:01. Described as above. The following applies: source organism: SARS coronavirus Tor2.
The target of a further assay is HLA-A*68:01. Described as above. The following applies: source organism: SARS coronavirus Tor2.
A further assay addresses HLA-B*51:01. Described as above.
The next assay addresses HLA-B*35:01. The description is as above.
Another assay has as its target HLA-B*53:01. Described as above.
The target in another assay is HLA-A*02:01. As to the kind of experiment: IEDB peptide-MHC binding, purified MHC/competitive/fluorescence; filed as Kd, often an IC50 or EC50 that approximates it; ≥ and ≤ were set here for values at or beyond the usual limits of such assays.
Another assay has as its target HLA-B*08:01. The experiment in a line: IEDB peptide-MHC binding, purified MHC/competitive/radioactivity; filed as Kd, often an IC50 or EC50 that approximates it; ≥ and ≤ were set here for values at or beyond the usual limits of such assays. The settings on record: source organism: Vaccinia virus WR.
Setting [1] is: source organism: SARS coronavirus Tor2.
[2] abbreviates: source organism: Mammarenavirus machupoense.
The mark [3] stands for this setting: source organism: Mammarenavirus juninense.
Where [4] appears, read: source organism: Dengue virus 1 Brazil/97-11/1997.
[5] abbreviates: source organism: Dengue virus 2 Peru/IQT2913/1996.

For orientation: Kd means the equilibrium constant for the complex coming apart. In the case of AMDEFIQRY, the Kd with HLA-A*01:01 (setting [1]) is 0.0644 µM; in the assay with HLA-A*03:01 it was 1.63 µM; in the assay with HLA-A*11:01 it was 3.23 µM; in the assay with HLA-A*23:01 (setting [1]), ≥ 20.1 µM; with HLA-A*24:02 (setting [1]), 7.9 µM; in the assay with HLA-A*26:01 (setting [1]), ≥ 84.1 µM. The Kd with HLA-A*29:02 (setting [1]) was 0.896 µM; with HLA-A*30:02 (setting [1]) it was 1.39 µM; with HLA-A*31:01, ≥ 77.9 µM; in the assay with HLA-A*33:01, ≥ 77.7 µM; in the assay with HLA-A*68:01 it was ≥ 77.7 µM.

As to LPPEKCDTL, in the assay with HLA-B*51:01 (source organism: Dengue virus 3 Martinique/1243/1999), the Kd was found to be 7.73 µM.

For the sequence HCALLDCIMY, the Kd with HLA-A*01:01 (setting [2]) was 0.232 µM; in the assay with HLA-A*23:01 (setting [2]), ≥ 70 µM; in the assay with HLA-A*24:02 (setting [2]) it was ≥ 70.3 µM; with HLA-A*26:01 (setting [2]) it was ≥ 69.7 µM; in the assay with HLA-A*29:02 (setting [2]), 2.18 µM; with HLA-A*30:02 (setting [2]), 1.42 µM.

Turning to VGEEFFHQY, the Kd in the assay with HLA-A*01:01 (setting [3]) was 3.34 µM; in the assay with HLA-A*23:01 (setting [3]), 0.251 µM; with HLA-A*24:02 (setting [3]) it was 1.62 µM; with HLA-A*26:01 (setting [3]), ≥ 77.9 µM; in the assay with HLA-A*29:02 (setting [3]), 2.38 µM; in the assay with HLA-A*30:02 (setting [3]) it was 0.00674 µM.

Take LPDTIETLM: the Kd in the assay with HLA-B*35:01 (setting [4]) is 0.818 µM; with HLA-B*51:01 (setting [4]), 19 µM; in the assay with HLA-B*53:01 (setting [4]) it was 0.428 µM.

RLSFKELLVY: the Kd with HLA-A*01:01 (setting [1]) was determined as 0.239 µM; with HLA-A*23:01 (setting [1]), 14.7 µM; with HLA-A*24:02 (setting [1]), 15.7 µM; with HLA-A*26:01 (setting [1]), 10.1 µM; with HLA-A*29:02 (setting [1]), 0.0862 µM; with HLA-A*30:02 (setting [1]) it was 0.226 µM.

In the case of YCNYTKFWY, the Kd is 18.5 µM in the assay with HLA-A*01:01 (setting [3]); ≥ 22.2 µM with HLA-A*23:01 (setting [3]); ≥ 77.5 µM with HLA-A*24:02 (setting [3]); ≥ 77.9 µM in the assay with HLA-A*26:01 (setting [3]); 2 µM in the assay with HLA-A*29:02 (setting [3]); 0.674 µM with HLA-A*30:02 (setting [3]).

As to MAVGMVSIL, the Kd with HLA-B*35:01 (source organism: Dengue virus 2 Jamaica/1409/1983) turned out to be 0.0103 µM.

As to TPVESWEEI, the Kd with HLA-B*51:01 (setting [5]) is 10.5 µM; with HLA-B*53:01 (setting [5]) it was 0.157 µM.

LFLAFVVFLL: the Kd with HLA-A*01:01 (setting [1]) was found to be 0.537 µM; with HLA-A*23:01 (setting [1]), 0.846 µM; with HLA-A*24:02 (setting [1]) it was 11.7 µM; with HLA-A*26:01 (setting [1]), 0.251 µM; in the assay with HLA-A*29:02 (setting [1]) it was 0.793 µM; in the assay with HLA-A*30:02 (setting [1]), 2 µM.

In the case of AVAANIVLTV, in the assay with HLA-A*02:01 (source organism: Homo sapiens), the Kd is 0.207 µM.

Take IPNHGVTAT: the Kd in the assay with HLA-B*35:01 (source organism: Dengue virus 4 Philippines/H241/1956) was 2.28 µM.

As to EYISDAFSL, the Kd was ≥ 37.6 µM with HLA-A*01:01 (setting [1]); ≥ 64.6 µM with HLA-A*23:01 (setting [1]); ≥ 91.8 µM with HLA-A*24:02 (setting [1]); ≥ 77.9 µM with HLA-A*26:01 (setting [1]); ≥ 88.2 µM in the assay with HLA-A*29:02 (setting [1]); ≥ 81.1 µM in the assay with HLA-A*30:02 (setting [1]).

On to YFMKFRRVF, for which the Kd with HLA-A*01:01 (setting [1]) was ≥ 78.1 µM; with HLA-A*23:01 (setting [1]), ≥ 26.9 µM; with HLA-A*24:02 (setting [1]), ≥ 77.6 µM; in the assay with HLA-A*26:01 (setting [1]), ≥ 49.3 µM; with HLA-A*29:02 (setting [1]), 12.7 µM; in the assay with HLA-A*30:02 (setting [1]), ≥ 22.1 µM.

With TEETFKLSY, the Kd with HLA-A*01:01 (setting [1]) is 7.91 µM; with HLA-A*23:01 (setting [1]), ≥ 62.8 µM; in the assay with HLA-A*24:02 (setting [1]), ≥ 30.2 µM; in the assay with HLA-A*26:01 (setting [1]), 15.3 µM; with HLA-A*29:02 (setting [1]), 0.141 µM; in the assay with HLA-A*30:02 (setting [1]), 3.6 µM.

Turning to AIVGGLAEL, the Kd with HLA-A*02:01 (source organism: Japanese encephalitis virus) turned out to be 0.012 µM.

MADVPLQWI: in the assay with HLA-B*51:01 (source organism: Dengue virus 3 Singapore/8120/1995), the Kd came out at 2.27 µM.

For the sequence KLGFEEIKGL, the dissociation constant (Kd) in the assay with HLA-A*02:01 (source organism: Vaccinia virus Copenhagen) is 0.0306 µM.

Take TLKQRLTNL: the Kd in the assay with HLA-A*02:01 (source organism: Vaccinia virus WR) is 1.39 µM; with HLA-B*08:01, 0.00174 µM.

Take VIEGPTTCGY: the Kd with HLA-A*01:01 (setting [1]) is 0.109 µM; with HLA-A*23:01 (setting [1]), ≥ 38.1 µM; with HLA-A*24:02 (setting [1]), 17 µM; with HLA-A*26:01 (setting [1]), 0.907 µM; in the assay with HLA-A*29:02 (setting [1]), 0.152 µM; with HLA-A*30:02 (setting [1]) it was 0.0262 µM.

Values taken from the Immune Epitope Database (IEDB).
